Results taken from article PMC9482650, “Quantitative fragmentomics allow affinity mapping of interactomes” (Nature Communications, 2022).

T1: MPP2, Q14168
T1 sequence (Q14168 180-250, limits assumed, looked up): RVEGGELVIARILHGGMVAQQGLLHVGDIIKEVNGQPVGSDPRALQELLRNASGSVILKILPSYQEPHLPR

T2: ARHGEF11, O15085
T2 sequence (O15085 42-136, limits assumed, looked up): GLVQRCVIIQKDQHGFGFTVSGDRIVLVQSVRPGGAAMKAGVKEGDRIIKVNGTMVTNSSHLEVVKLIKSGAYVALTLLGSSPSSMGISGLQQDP

T3: LNX2_2, Q8N448
T3 sequence (Q8N448 334-432, limits assumed, looked up): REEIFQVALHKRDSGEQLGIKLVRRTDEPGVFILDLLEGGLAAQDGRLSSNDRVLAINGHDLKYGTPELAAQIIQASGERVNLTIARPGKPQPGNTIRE

T4: GRIP1_2, Q9Y3R0
T4 sequence (Q9Y3R0 145-248, limits assumed, looked up): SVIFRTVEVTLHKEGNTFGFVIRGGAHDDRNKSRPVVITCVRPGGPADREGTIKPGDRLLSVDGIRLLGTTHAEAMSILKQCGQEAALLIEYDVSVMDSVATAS

T5: SNTB1, Q13884
T5 sequence (Q13884 107-205, limits assumed, looked up): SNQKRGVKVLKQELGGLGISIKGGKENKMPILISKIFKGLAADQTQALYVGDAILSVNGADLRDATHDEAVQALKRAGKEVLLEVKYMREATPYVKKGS

T6: TX1BP3, O14907
T6 sequence (O14907 10-122, limits assumed, looked up): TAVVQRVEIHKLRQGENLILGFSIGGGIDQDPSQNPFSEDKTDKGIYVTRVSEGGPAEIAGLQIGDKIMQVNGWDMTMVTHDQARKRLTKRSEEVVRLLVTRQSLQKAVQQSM

T7: APBA2_2, Q99767
T7 sequence (Q99767 654-744, limits assumed, looked up): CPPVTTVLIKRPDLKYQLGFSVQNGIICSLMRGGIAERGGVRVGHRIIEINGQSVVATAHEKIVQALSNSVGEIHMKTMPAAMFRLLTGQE

T8: MPDZ_5, O75970
T8 sequence (O75970 695-796, limits assumed, looked up): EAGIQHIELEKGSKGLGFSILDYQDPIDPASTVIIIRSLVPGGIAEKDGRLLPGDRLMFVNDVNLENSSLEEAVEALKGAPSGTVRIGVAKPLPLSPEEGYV

T9: APBA1_1, Q02410
T9 sequence (Q02410 651-752, limits assumed, looked up): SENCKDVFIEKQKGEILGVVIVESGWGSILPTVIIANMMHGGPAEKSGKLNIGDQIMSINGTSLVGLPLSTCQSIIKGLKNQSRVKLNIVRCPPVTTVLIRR

T10: RADIL, Q96JH8
T10 sequence (Q96JH8 971-1071, limits assumed, looked up): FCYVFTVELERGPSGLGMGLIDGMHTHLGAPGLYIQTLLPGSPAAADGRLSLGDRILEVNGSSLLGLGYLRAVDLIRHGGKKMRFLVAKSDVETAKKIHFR

T11: CARD11, Q9BXL7
T11 sequence (Q9BXL7 662-765, limits assumed, looked up): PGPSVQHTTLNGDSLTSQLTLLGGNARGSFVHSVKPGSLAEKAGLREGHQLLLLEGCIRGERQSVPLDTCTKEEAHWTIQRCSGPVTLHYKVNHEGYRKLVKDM

T12: DLG3_1, Q92796
T12 sequence (Q92796 125-227, limits assumed, looked up): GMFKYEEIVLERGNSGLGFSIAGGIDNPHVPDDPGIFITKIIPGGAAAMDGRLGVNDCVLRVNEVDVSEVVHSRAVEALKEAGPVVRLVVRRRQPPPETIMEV


Assays:
Experiment in all cases: holdup assay
Parameters in all cases: key: below the threshold = too weak to quantify, mostly under pKd 3.1 to 4
Settings in all cases: plain residues with an end cap or a label only (N-terminal biotin on a linker: ado-ado)
MPP2, Q14168 = target: T1, MPP2, Q14168
Inadl_10, Q8NI35 = target: Inadl_10, Q8NI35
ARHGEF11, O15085 = target: T2, ARHGEF11, O15085
MAGI2_4, Q86UL8 = target: MAGI2_4, Q86UL8
LAP2, Q96RT1 = target: LAP2, Q96RT1
LNX2_2, Q8N448 = target: T3, LNX2_2, Q8N448
GRIP1_2, Q9Y3R0 = target: T4, GRIP1_2, Q9Y3R0
PICK1, Q9NRD5 = target: PICK1, Q9NRD5
SNTB1, Q13884 = target: T5, SNTB1, Q13884
TX1BP3, O14907 = target: T6, TX1BP3, O14907
APBA2_2, Q99767 = target: T7, APBA2_2, Q99767
DLG4_2, P78352 = target: DLG4_2, P78352
MPDZ_5, O75970 = target: T8, MPDZ_5, O75970
DLG1_3, Q12959 = target: DLG1_3, Q12959
PDZRN4_1, Q6ZMN7 = target: PDZRN4_1, Q6ZMN7
AHNAK1, Q09666 = target: AHNAK1, Q09666
APBA1_1, Q02410 = target: T9, APBA1_1, Q02410
RADIL, Q96JH8 = target: T10, RADIL, Q96JH8
TJP2_1, Q9UDY2 = target: TJP2_1, Q9UDY2
DLG1_1, Q12959 = target: DLG1_1, Q12959
CARD11, Q9BXL7 = target: T11, CARD11, Q9BXL7
LNX1_2, Q8TBB1 = target: LNX1_2, Q8TBB1
DLG3_1, Q92796 = target: T12, DLG3_1, Q92796
MAGI3_2, Q5TCQ9 = target: MAGI3_2, Q5TCQ9
TJP1_2, Q07157 = target: TJP1_2, Q07157
DLG2_3, Q15700 = target: DLG2_3, Q15700

Chain of PDZRN4_1, Q6ZMN7 (Q6ZMN7 213-318): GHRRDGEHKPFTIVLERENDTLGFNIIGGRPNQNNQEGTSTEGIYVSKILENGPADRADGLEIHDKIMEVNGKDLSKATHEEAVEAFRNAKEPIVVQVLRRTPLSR
Chain of PICK1, Q9NRD5 (Q9NRD5 17-115): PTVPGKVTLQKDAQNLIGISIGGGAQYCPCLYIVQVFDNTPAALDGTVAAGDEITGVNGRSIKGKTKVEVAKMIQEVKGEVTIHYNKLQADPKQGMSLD
Chain of DLG4_2, P78352 (P78352 155-259): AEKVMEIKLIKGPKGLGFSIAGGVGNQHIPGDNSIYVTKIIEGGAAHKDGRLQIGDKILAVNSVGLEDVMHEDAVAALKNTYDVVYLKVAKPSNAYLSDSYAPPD
Chain of TJP1_2, Q07157 (Q07157 181-274): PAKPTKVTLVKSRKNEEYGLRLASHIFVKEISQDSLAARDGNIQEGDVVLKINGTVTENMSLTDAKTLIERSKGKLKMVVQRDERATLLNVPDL
Chain of LAP2, Q96RT1 (Q96RT1 other isoform, or with tags, fused parts or gaps): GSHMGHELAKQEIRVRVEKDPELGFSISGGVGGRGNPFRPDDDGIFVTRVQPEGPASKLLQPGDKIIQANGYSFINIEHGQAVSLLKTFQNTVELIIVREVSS
Chain of Inadl_10, Q8NI35 (Q8NI35 1673-1763): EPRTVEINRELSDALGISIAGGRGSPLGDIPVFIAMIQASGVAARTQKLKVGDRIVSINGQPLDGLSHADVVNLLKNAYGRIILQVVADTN
Chain of MAGI2_4, Q86UL8 (Q86UL8 772-865): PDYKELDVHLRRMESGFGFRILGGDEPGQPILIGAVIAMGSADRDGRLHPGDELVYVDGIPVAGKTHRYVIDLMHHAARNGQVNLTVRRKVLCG
Chain of TJP2_1, Q9UDY2 (Q9UDY2 24-128): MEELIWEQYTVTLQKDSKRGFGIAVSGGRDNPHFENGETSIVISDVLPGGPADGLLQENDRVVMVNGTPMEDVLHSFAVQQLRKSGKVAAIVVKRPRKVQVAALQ
Chain of LNX1_2, Q8TBB1 (Q8TBB1 371-470): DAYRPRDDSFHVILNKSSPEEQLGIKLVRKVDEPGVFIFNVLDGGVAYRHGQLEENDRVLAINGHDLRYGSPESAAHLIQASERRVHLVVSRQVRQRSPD
Chain of MAGI3_2, Q5TCQ9 (Q5TCQ9 398-503): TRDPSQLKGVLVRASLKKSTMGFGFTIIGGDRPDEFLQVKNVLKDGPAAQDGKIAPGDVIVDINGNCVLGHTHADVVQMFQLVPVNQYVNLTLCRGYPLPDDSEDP
Chain of AHNAK1, Q09666 (Q09666 4-100): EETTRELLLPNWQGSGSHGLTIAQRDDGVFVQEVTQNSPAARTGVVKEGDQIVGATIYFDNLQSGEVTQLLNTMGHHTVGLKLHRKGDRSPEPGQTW

Row | pKd (MPP2, Q14168) | pKd (Inadl_10, Q8NI35) | pKd (ARHGEF11, O15085) | pKd (MAGI2_4, Q86UL8) | pKd (LAP2, Q96RT1) | pKd (LNX2_2, Q8N448) | pKd (GRIP1_2, Q9Y3R0) | pKd (PICK1, Q9NRD5) | pKd (SNTB1, Q13884) | pKd (TX1BP3, O14907) | pKd (APBA2_2, Q99767) | pKd (DLG4_2, P78352) | pKd (MPDZ_5, O75970) | pKd (DLG1_3, Q12959) | pKd (PDZRN4_1, Q6ZMN7) | pKd (AHNAK1, Q09666) | pKd (APBA1_1, Q02410) | pKd (RADIL, Q96JH8) | pKd (TJP2_1, Q9UDY2) | pKd (DLG1_1, Q12959) | Binder | other results
1 | below the threshold | below the threshold | below the threshold | below the threshold | 3.86 | below the threshold | below the threshold | 4.13 | below the threshold | below the threshold | below the threshold | below the threshold | below the threshold | below the threshold | below the threshold | below the threshold | below the threshold | below the threshold | below the threshold | below the threshold | TLPRKRMSSI [GPRC6A, Q5T6X5] | pKd (CARD11, Q9BXL7): below the threshold; pKd (LNX1_2, Q8TBB1): below the threshold; pKd (DLG3_1, Q92796): below the threshold; pKd (MAGI3_2, Q5TCQ9): 4.15; pKd (TJP1_2, Q07157): below the threshold; pKd (DLG2_3, Q15700): 3.84
2 | below the threshold | below the threshold | 4.44 | 4.4 | 4.05 | 5.21 | below the threshold | below the threshold | 4.95 | 3.82 | below the threshold | 4.82 | below the threshold | 3.97 | 3.67 | below the threshold | below the threshold | 4.35 | below the threshold | 4.56 | TACCHSETVV [TGFA, P01135] | pKd (CARD11, Q9BXL7): below the threshold; pKd (LNX1_2, Q8TBB1): 3.9; pKd (DLG3_1, Q92796): 4.19; pKd (MAGI3_2, Q5TCQ9): 5.27; pKd (TJP1_2, Q07157): below the threshold; pKd (DLG2_3, Q15700): 4.05
3 | below the threshold | below the threshold | below the threshold | below the threshold | below the threshold | below the threshold | below the threshold | below the threshold | below the threshold | below the threshold | below the threshold | below the threshold | below the threshold | below the threshold | below the threshold | below the threshold | below the threshold | below the threshold | below the threshold | below the threshold | TSSMRGMDAV [RSRC2, Q7L4I2] | pKd (CARD11, Q9BXL7): below the threshold; pKd (LNX1_2, Q8TBB1): below the threshold; pKd (DLG3_1, Q92796): below the threshold; pKd (MAGI3_2, Q5TCQ9): below the threshold; pKd (TJP1_2, Q07157): below the threshold; pKd (DLG2_3, Q15700): below the threshold
4 | below the threshold | below the threshold | 3.71 | 3.94 | below the threshold | 4.56 | below the threshold | 4.13 | 3.54 | 4.24 | below the threshold | below the threshold | below the threshold | below the threshold | below the threshold | below the threshold | below the threshold | 4.6 | 4.72 | below the threshold | HSGYRLNDYV [CLDN14, O95500] | pKd (CARD11, Q9BXL7): below the threshold; pKd (LNX1_2, Q8TBB1): 3.61; pKd (DLG3_1, Q92796): below the threshold; pKd (MAGI3_2, Q5TCQ9): below the threshold; pKd (TJP1_2, Q07157): below the threshold; pKd (DLG2_3, Q15700): below the threshold
5 | below the threshold | below the threshold | below the threshold | below the threshold | 4.6 | below the threshold | below the threshold | below the threshold | 4.69 | 5.13 | below the threshold | 5.29 | below the threshold | below the threshold | below the threshold | below the threshold | below the threshold | below the threshold | below the threshold | 4.75 | KKMPSIESDV [GRIN2A, Q12879] | pKd (CARD11, Q9BXL7): below the threshold; pKd (LNX1_2, Q8TBB1): below the threshold; pKd (DLG3_1, Q92796): 4.35; pKd (MAGI3_2, Q5TCQ9): 4.32; pKd (TJP1_2, Q07157): below the threshold; pKd (DLG2_3, Q15700): 3.74
